Test results taken from patent US5993823.

Tests used:
[1] = molecular target: SIV GAG 165-185 peptide on autologous macaque B-LCL (SIV; rhesus macaque (Macaca mulatta))
[2] = molecular target: SIV GAG 165-195 peptide (LP6) on autologous macaque B-LCL (SIV; rhesus macaque (Macaca mulatta))
[3] = molecular target: SIV GAG 176-195 peptide on autologous macaque B-LCL (SIV; rhesus macaque (Macaca mulatta))
[4] = molecular target: SIV NEF 155-178 peptide (LP3) on autologous macaque B-LCL (SIV; rhesus macaque (Macaca mulatta))
[5] = molecular target: SIV GAG 246-282 peptide (LP7) on autologous macaque B-LCL (SIV; rhesus macaque (Macaca mulatta))
[6] = molecular target: SIV NEF 155-169 peptide on autologous macaque B-LCL (SIV; rhesus macaque (Macaca mulatta))
[7] = molecular target: SIV NEF 160-176 peptide on autologous macaque B-LCL (SIV; rhesus macaque (Macaca mulatta))
[8] = molecular target: SIV NEF 164-178 peptide on autologous macaque B-LCL (SIV; rhesus macaque (Macaca mulatta))
[9] = molecular target: SIV NEF 125-138 peptide on autologous macaque B-LCL (SIV; rhesus macaque (Macaca mulatta))
[10] = molecular target: SIV NEF 133-147 peptide on autologous macaque B-LCL (SIV; rhesus macaque (Macaca mulatta))
[11] = molecular target: SIV NEF 125-147 peptide (LP2) on autologous macaque B-LCL (SIV; rhesus macaque (Macaca mulatta))
[12] = molecular target: SIV NEF 155-178 peptide (LP3) on autologous macaque B-LCL (SIV; rhesus macaque (Macaca mulatta)); remark: listed apart in the source
[13] = molecular target: SIV NEF 201-225 peptide (LP4) on autologous macaque B-LCL (SIV; rhesus macaque (Macaca mulatta))
[14] = molecular target: SIV NEF 201-215 peptide on autologous macaque B-LCL (SIV; rhesus macaque (Macaca mulatta))
[15] = molecular target: SIV NEF 211-225 peptide on autologous macaque B-LCL (SIV; rhesus macaque (Macaca mulatta))

Substance “CTL line from PBMC of immunized macaque RS4, restimulated with the mixture of the 7 peptides (cells without a defined receptor)” has a specific 51Cr release (CRT), E/T 60:1 and 20:1 (percent specific chromium release) [1] of 8, a specific 51Cr release (CRT), E/T 60:1 and 20:1 (percent specific chromium release) [2] of 57 and a specific 51Cr release (CRT), E/T 60:1 and 20:1 (percent specific chromium release) [3] of 35.

Work on “CTL line from PBMC of immunized macaque RS6, restimulated with the mixture of the 7 peptides (cells without a defined receptor)” yielded a specific 51Cr release (CRT), E/T 70:1 (% specific lysis) [4] of 40.

“CTL line from PBMC of immunized macaque RS7, restimulated with the mixture of the 7 peptides (cells without a defined receptor)” was tested, and the specific 51Cr release (CRT), E/T 70:1 (% specific lysis) [5] was 59.

In the case of “CTL line from PBMC of immunized macaque RS17, restimulated with the mixture of the 7 peptides (cells without a defined receptor)”, the specific 51Cr release (CRT), E/T 60:1 and 20:1 (percent specific chromium release) [6] is reported as 0, the specific 51Cr release (CRT), E/T 60:1 and 20:1 (percent specific chromium release) [7] is reported as 0 and the specific 51Cr release (CRT), E/T 60:1 and 20:1 (percent specific chromium release) [8] is reported as 46. For the same substance, the specific 51Cr release (CRT), E/T 70:1 (% specific lysis) [4] was 44.

Substance “CTL line from PBMC of immunized macaque RS20, restimulated with the mixture of the 7 peptides (cells without a defined receptor)” has a specific 51Cr release (CRT), E/T 60:1 and 20:1 (percent specific chromium release) [9] of 85, a specific 51Cr release (CRT), E/T 60:1 and 20:1 (percent specific chromium release) [10] of 4 and a specific 51Cr release (CRT) (percent specific chromium release) [6] of 14. For the same substance, the specific 51Cr release (CRT) (percent specific chromium release) [7] was 6, the specific 51Cr release (CRT) (percent specific chromium release) [8] was 49 and the specific 51Cr release (CRT), E/T 60:1 and 20:1 (percent specific chromium release) [11] was 72. It also gave a specific 51Cr release (CRT) (percent specific chromium release) [12] of 87.

“CTL line from PBMC of immunized macaque RS21, restimulated with the mixture of the 7 peptides (cells without a defined receptor)” gave a specific 51Cr release (CRT), E/T 70:1 (% specific lysis) [13] of 35.

For “CTL line from PBMC of immunized macaque RS23, restimulated with the mixture of the 7 peptides (cells without a defined receptor)”, the specific 51Cr release (CRT), E/T 60:1 and 20:1 (percent specific chromium release) [14] was 18, the specific 51Cr release (CRT), E/T 60:1 and 20:1 (percent specific chromium release) [15] was 0 and the specific 51Cr release (CRT), E/T 70:1 (% specific lysis) [13] was 42.
